Measurements taken from PMC8529494, “KAT6A Acetylation of SMAD3 Regulates Myeloid‐Derived Suppressor Cell Recruitment, Metastasis, and Immunotherapy in Triple‐Negative Breast Cancer” (Advanced Science, 2021).

Target: T1, (His)6-TRIM24 (UniProt O15164 1-1050)
T1 construct: Tripartite motif-containing 24 (TRIM24); also called tripartite motif-containing 24; source: recombinant, purified
T1 sequence (looked up): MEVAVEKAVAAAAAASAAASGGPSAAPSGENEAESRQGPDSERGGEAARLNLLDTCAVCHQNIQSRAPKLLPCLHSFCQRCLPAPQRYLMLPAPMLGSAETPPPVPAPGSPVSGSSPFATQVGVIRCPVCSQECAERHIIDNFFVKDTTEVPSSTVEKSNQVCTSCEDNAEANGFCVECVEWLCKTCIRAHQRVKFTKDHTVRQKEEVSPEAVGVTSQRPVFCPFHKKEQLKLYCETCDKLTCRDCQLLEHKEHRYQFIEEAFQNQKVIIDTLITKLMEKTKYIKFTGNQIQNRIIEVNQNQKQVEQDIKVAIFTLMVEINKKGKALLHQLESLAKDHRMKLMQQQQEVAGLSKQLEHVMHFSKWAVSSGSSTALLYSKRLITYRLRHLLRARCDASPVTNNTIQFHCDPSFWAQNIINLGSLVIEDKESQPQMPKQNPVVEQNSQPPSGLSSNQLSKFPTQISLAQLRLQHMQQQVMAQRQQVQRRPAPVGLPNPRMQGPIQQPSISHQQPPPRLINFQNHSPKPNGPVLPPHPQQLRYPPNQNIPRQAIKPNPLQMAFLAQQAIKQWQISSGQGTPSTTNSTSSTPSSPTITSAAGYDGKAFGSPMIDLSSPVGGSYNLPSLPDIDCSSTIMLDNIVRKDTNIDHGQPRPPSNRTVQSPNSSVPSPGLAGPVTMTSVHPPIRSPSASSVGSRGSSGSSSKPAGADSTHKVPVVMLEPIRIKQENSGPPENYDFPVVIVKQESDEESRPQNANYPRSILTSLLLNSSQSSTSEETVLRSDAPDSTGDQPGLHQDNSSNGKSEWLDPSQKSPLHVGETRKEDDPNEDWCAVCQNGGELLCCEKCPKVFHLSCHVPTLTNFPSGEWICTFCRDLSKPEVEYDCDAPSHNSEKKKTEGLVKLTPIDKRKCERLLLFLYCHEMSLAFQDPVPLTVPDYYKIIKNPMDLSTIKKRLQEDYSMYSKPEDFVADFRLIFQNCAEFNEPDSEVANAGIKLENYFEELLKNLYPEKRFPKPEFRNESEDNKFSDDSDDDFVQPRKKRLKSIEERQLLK
Test: pull-down; GST pull-down with purified GST-SMAD3 and (His)6-TRIM24, western blot with anti-TRIM24 and anti-SMAD3
Details: both partners purified

- binding result: binds
B1: GST-SMAD3 (natural protein, UniProt P84022 1-425, looked up)
chain: MSSILPFTPPIVKRLLGWKKGEQNGQEEKWCEKAVKSLVKKLKKTGQLDELEKAITTQNVNTKCITIPRSLDGRLQVSHRKGLPHVIYCRLWRWPDLHSHHELRAMELCEFAFNMKKDEVCVNPYHYQRVETPVLPPVLVPRHTEIPAEFPPLDDYSHSIPENTNFPAGIEPQSNIPETPPPGYLSEDGETSDHQMNHSMDAGSPNLSPNPMSPAHNNLDLQPVTYCEPAFWCSISYYELNQRVGETFHASQPSMTVDGFTDPSNSERFCLGLLSNVNRNAAVELTRRHIGRGVRLYYIGGEVFAECLSDSAIFVQSPNCNQRYGWHPATVCKIPPGCNLKIFNNQEFAALLAQSVNQGFEAVYQLTRMCTIRMSFVKGWGAEYRRQTVTSTPCWIELHLNGPLQWLDKVLTQMGSPSIRCSSVS
notes: SMAD3; also called recombinant GST-SMAD3; source: recombinant, purified
